Test results reported in article doi:10.1101/2021.02.12.430940 (bioRxiv, 2021).

Target: SARS-CoV-2 RBD-mFc (SARS-CoV-2, reference (Wuhan-Hu-1) by …, UniProt P0DTC2)
Assay: flow cytometry on cells

B1: mAb-82 (antibody, V domains shown)
VH: QVQLVQSGAEVKKPGSSVKVSCKASGGTFSSYAISWVRQAPGQGLEWMGGIIPIFGTANYAQKFQGRVTITADESTSTAYMELSSLRSEDTAVYYCARGNDDSSGYYSHYYYGMDVWGQGTTVTVSS
VL: QTVVTQEPSFSVSPGGTVTLTCGLSSGSVSTSYYPSWYQQTPGQAPRTLIYSTNTRSSGVPDRFSGSILGNKAALTITGAQADDESDYYCVLYMGSGAVFGGGTQLTVL
B1: binds.
